In PMC3625234, “The L-Cysteine Desulfurase NFS1 Is Localized in the Cytosol where it Provides the Sulfur for Molybdenum Cofactor Biosynthesis in Humans” (PLoS ONE, 2013):
Each block holds one molecule with its values, some of them ahead of it.

Key:
[1] = molecular target: MOCS3-RLD (purified) (human); test: SPR; Biacore T200, CM5 chip, target immobilized by amine coupling (400–600 RU), 25°C, 30 µL/min, 20 mM phosphate, 150 mM NaCl, 0.005% Tween 20, pH 7.4; analytes 0.31–10 µM; global fit, 1:1 binding, mean of 3 measurements
[2] = molecular target: ECFP-MOCS3-RLD fusion (human); test: FRET or BRET; time-gated FLIM-FRET in transiently transfected HeLa cells; ECFP donor lifetime (long component τ1 of a bi-exponential fit) with EYFP acceptor; N = 30–42 cells
NFS1Δ1-55/ISD11 complex = molecular target: T1, NFS1Δ1-55/ISD11 complex (human, UniProt Q9Y697 56-457; Q9HD34 1-91); test: SPR; Biacore T200, CM5 chip, target immobilized by amine coupling (400–600 RU), 25°C, 30 µL/min, 20 mM phosphate, 150 mM NaCl, 0.005% Tween 20, pH 7.4; analytes 0.31–10 µM; global fit, 1:1 binding, mean of 3 measurements; conditions: both partners purified
T1 construct: L-cysteine desulfurase NFS1, human, without residues 1-55; ISD11, human; source: E. coli BL21(DE3), co-expressed (pZM2 and pZM4), purified

[3] = molecular target: T2, NFS1Δ1-55^C381A/ISD11 complex (human, UniProt Q9Y697 56-457; Q9HD34 1-91, C381A); test: as above; conditions: both partners purified
T2 construct: L-cysteine desulfurase NFS1, human, without residues 1-55, with C381A; ISD11, human; without ISD11 it precipitated; source: E. coli BL21(DE3), co-expressed (pUMT13 and pZM4), purified
T2 sequence (Q9Y697 56-457 C381A, chain 1 of 2): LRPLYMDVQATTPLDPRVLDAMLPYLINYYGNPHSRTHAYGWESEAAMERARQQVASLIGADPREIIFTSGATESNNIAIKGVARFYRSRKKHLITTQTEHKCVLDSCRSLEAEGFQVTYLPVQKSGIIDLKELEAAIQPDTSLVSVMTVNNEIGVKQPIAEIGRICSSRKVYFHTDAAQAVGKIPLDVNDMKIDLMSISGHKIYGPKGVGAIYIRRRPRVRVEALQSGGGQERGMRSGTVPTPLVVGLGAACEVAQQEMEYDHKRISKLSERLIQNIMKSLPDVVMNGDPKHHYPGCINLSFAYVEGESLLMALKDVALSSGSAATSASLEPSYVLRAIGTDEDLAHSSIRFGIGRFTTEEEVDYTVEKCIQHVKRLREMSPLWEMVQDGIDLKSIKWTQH
T2 sequence (Q9HD34 whole entry, chain 2 of 2, the tested form may be a part): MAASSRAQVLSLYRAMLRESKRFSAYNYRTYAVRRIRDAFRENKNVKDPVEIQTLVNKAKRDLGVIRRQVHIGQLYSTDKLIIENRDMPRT

T1 sequence (Q9Y697 56-457, stated change not applied, chain 1 of 2): as the sequence (Q9Y697 56-457 C381A, chain 1 of 2) above, with A326C counted along it
T1 sequence (Q9HD34 whole entry, stated change not applied, chain 2 of 2, the tested form may be a part): as the sequence (Q9HD34 whole entry, chain 2 of 2, the tested form may be a part) above

Kd [1]: 36 nM
Molecule: NFS1Δ1-55 (purified) (from UniProt Q9Y697 56-457) (domain or fragment)

Kd (NFS1Δ1-55/ISD11 complex): 119 nM | Kd [3]: 218 nM
B1: MOCS3 purified after expression in Sf9 cells (enzyme, human, UniProt O95396 1-460, looked up)
chain: MASREEVLALQAEVAQREEELNSLKQKLASALLAEQEPQPERLVPVSPLPPKAALSRDEILRYSRQLVLPELGVHGQLRLGTACVLIVGCGGLGCPLAQYLAAAGVGRLGLVDYDVVEMSNLARQVLHGEALAGQAKAFSAAASLRRLNSAVECVPYTQALTPATALDLVRRYDVVADCSDNVPTRYLVNDACVLAGRPLVSASALRFEGQITVYHYDGGPCYRCIFPQPPPAETVTNCADGGVLGVVTGVLGCLQALEVLKIAAGLGPSYSGSLLLFDALRGHFRSIRLRSRRLDCAACGERPTVTDLLDYEAFCGSSATDKCRSLQLLSPEERVSVTDYKRLLDSGAFHLLLDVRPQVEVDICRLPHALHIPLKHLERRDAESLKLLKEAIWEEKQGTQEGAAVPIYVICKLGNDSQKAVKILQSLSAAQELDPLTVRDVVGGLMAWAAKIDGTFPQY
notes: MOCS3, human; no tag is named here; also called pMMC30; source: Sf9 cells, purified

The next lines start with the molecule.

Molecule: NFS1Δ1-55^C381A/ISD11 complex (from UniProt Q9Y697 56-457; Q9HD34 1-91)
Kd [1]: 241 nM

Molecule: EYFP-NFS1Δ1-55 fusion (from UniProt Q9Y697 56-457) (domain or fragment)
ECFP donor lifetime τ1 [2]: 2.9 ns | reduction of the ECFP donor lifetime [2]: 17%

Molecule: NFS1Δ1-55/ISD11 complex (from UniProt Q9Y697 56-457; Q9HD34 1-91)
Kd [1]: 166 nM
